Assay results as given in patent publication US20080280824A1, “COMPOSITIONS AND METHODS FOR TREATMENT OF CANCER OR NEURODEGENERATIVE DISEASE WITH PEPTIDE BASED MICROTUBULE STABILIZERS OR INHIBITORS” (University of Washington, priority 2007, published 2008).
“Also recorded” adds a separate entry of the source.

What was measured:
[1] = target: T1, Bovine brain tubulin (Bos taurus, UniProt P81947+Q6B856); assay: Microtubule assembly assay (DAPI fluorescence, Microtubule Stabilization/Destabilization Assay kit); type: biochemical; conditions: for effect on total microtubule assembly / amount of microtubules formed in 45 minutes / effect on rate of microtubule assembly: peptide or control molecule; for effect on microtubule assembly, vs absence of αB crystallin: wt or mutant αB crystallin protein, tubulin alone normalized to 1.0
T1 construct: Bovine brain tubulin was dissolved to 200 μM; purchased Cytoskeleton; Denver, Colo; host or cells: bovine brain
T1 sequence (P81947 whole entry): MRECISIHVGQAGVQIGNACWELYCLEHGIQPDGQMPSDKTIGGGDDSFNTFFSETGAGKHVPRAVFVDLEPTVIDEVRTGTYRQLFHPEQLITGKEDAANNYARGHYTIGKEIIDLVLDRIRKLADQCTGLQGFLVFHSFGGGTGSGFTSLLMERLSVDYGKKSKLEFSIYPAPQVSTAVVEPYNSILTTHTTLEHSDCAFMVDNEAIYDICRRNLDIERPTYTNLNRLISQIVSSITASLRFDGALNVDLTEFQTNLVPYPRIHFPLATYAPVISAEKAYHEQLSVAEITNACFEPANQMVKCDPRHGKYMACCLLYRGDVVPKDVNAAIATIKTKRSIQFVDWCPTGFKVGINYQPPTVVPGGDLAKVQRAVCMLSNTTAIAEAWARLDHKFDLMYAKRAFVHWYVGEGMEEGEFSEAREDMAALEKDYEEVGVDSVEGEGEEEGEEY
T1 sequence (Q6B856 whole entry): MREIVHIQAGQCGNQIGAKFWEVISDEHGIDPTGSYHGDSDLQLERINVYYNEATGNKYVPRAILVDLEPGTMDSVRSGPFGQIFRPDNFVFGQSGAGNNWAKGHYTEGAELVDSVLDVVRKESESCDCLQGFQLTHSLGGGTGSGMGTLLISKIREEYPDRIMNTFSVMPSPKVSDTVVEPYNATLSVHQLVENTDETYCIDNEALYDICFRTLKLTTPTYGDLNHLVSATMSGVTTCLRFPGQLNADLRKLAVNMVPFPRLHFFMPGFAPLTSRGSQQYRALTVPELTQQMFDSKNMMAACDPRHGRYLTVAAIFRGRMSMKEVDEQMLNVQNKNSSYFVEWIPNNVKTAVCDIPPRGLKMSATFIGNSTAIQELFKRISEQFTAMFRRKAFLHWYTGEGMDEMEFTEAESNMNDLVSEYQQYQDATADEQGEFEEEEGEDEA
Procedure: Microtubule assembly assays. The effect of selected αB crystallin peptides on the in vitro assembly of tubulin into microtubules was evaluated using the Microtubule Stabilization/Destabilization Assay kit (Cytoskeleton; Denver, Colo.) as described previously. Bonne et al., J Biol Chem 260:2819-25, 1985. Bovine brain tubulin was dissolved to 200 μM in 80 mM PIPES, 2 mM MgCl2, 0.5 mM EGTA, 10 μM DAPI, 1 mM GTP pH 6.9. 8.5 μl of the tubulin was mixed with 40 μl of 80 mM PIPES, 2 mM MgCl2, 0.5 mM EGTA, 7.4 μM DAPI, 16% Glycerol, 1.1 mM GTP pH 6.9 and 4.3 μl of 2 mM peptide in 2.5% DMSO, 2 mM Paclitaxel (polymerization promoter) in 100% DMSO, 15 mM CaCl2 (polymerization inhibitor) in water, or 2.5% DMSO only. Microtubule assembly was monitored by measuring the fluorescence of DAPI, a molecule whose emission fluorescence at λ=460 is enhanced 8-fold when it is incorporated into assembled microtubules. Bonne et al., J Biol Chem 260:2819-25, 1985. Fluorescence of samples were continuously read on a Perkin Elmer Victor^3 V fluorescence plate reader (Excitation λ=355 nm, Emission λ=460 nm) at 37° C. for 45 minutes.
The effect of wt and three mutant αB crystallins, Δ41-58, αAβ8, and Δ155-165 on the in vitro assembly of tubulin into microtubules was evaluated using the Microtubule Stabilization/Destabilization Assay kit described above (Cytoskeleton; Denver, Colo.). Bovine brain tubulin was dissolved to 200 μM in 80 mM PIPES, 2 mM MgCl2, 0.5 mM EGTA, 10 μM DAPI, 1 mM GTP pH 6.9. 8.5 μl of the tubulin was mixed with 40 μl of 80 mM PIPES, 2 mM MgCl2, 0.5 mM EGTA, 7.4 μM DAPI, 16% Glycerol, 1.1 mM GTP pH 6.9 and 4.3 μl of 80 μM protein in 20 mM Tris-Cl, pH8.0 or Tris-Cl buffer only. Fluorescence of samples were continuously read on a Perkin Elmer Victor^3 V fluorescence plate reader (Excitation λ=355 nm, Emission λ=460 nm) at 37° C. for 45 minutes.

[2] = system: pre-formed microtubules; assay: Microtubule disassembly assay (DAPI fluorescence); type: biochemical, Bovine; conditions: for effect on microtubule disassembly / inhibition of microtubule disassembly: peptide 170 μM, 34 μM pre-formed microtubules; for effect on microtubule disassembly / inhibition of microtubule disassembly / effect on microtubule disassembly (words), vs absence of αB crystallin: 23° C., 20 minutes; for effect on microtubule disassembly (words), vs absence of αB crystallin: wt or mutant αB crystallin (6.8 μM and 34 μM), 34 μM microtubules
Procedure: Microtubule disassembly assays. The effect of αB crystallin peptides and mutants on the in vitro disassembly of microtubules into soluble tubulin was evaluated using the Microtubule Stabilization/Destabilization Assay kit described above (Cytoskeleton; Denver, Colo.) as described previously^36. 34 μM pre-formed microtubules were incubated with the αB crystallin peptides (170 μM) or wt and mutant αB crystallins (6.8 μM and 34 μM) at 23° C. for 20 minutes. Incubation of microtubules at 23° C. results in the spontaneous disassembly of microtubules. The decrease in DAPI fluorescence at λ=460 nm was measured continuously for 20 minutes by exciting the samples at λ=355 nm using a Perkin Elmer Victor^3 V fluorescence plate reader.

[3] = system: Bovine brain tubulin; assay: Tubulin thermal aggregation assay (absorbance at 340 nm); type: biochemical; conditions: for effect on thermal aggregation of tubulin: synthetic peptide, 34 μM tubulin; for effect on tubulin aggregation, vs absence of αB crystallin: wt or mutant αB crystallin protein
Procedure: Tubulin aggregation assays. The effect of αB crystallin peptides and mutants on the thermal aggregation of tubulin was evaluated using ultra-violet spectroscopy. Bovine brain tubulin was dissolved to 200 μM in 80 mM PIPES, 2 mM MgCl2, 0.5 mM EGTA, pH 6.9. 4.25 μl of 0.08, 0.4, or 2 mM test peptide or protein was diluted into 40 μl of 80 mM PIPES, 2 mM MgCl2, 0.5 mM EGTA, pH 6.9. 8.5 μl of the 200 μM tubulin was added to each sample. Samples were heated at 52° C. and the absorbance at λ=340 nm was measured continuously for 60 minutes using a Pharmacia Biotech Ultrospec 3000. GTP and glycerol were not present in the samples because they induce the assembly of microtubules.

[4] = 34 μM tubulin, 37° C., 45 minutes, vs tubulin alone
[5] = 34 μM tubulin, 37° C., vs tubulin alone

Molecule: [Ca+2].[Cl-].[Cl-] [CaCl2, reference compound]
- effect on total microtubule assembly / amount of microtubules formed in 45 minutes [1, 4]: inhibited microtubule assembly

Molecule: CC(=O)O[C@H]1C(=O)[C@@]2(C)[C@H]([C@H](OC(=O)c3ccccc3)[C@]3(O)C[C@H](OC(=O)[C@H](O)[C@@H](NC(=O)c4ccccc4)c4ccccc4)C(C)=C1C3(C)C)[C@]1(OC(C)=O)CO[C@@H]1C[C@@H]2O [Paclitaxel, reference compound]
- effect on rate of microtubule assembly [1, 5]: accelerated microtubule assembly

Molecule: DRFSVNLDVKHFS
- effect on total microtubule assembly / amount of microtubules formed in 45 minutes [1, 4]: no effect; also recorded: without an effect
- effect on total microtubule assembly / amount of microtubules formed in 45 minutes ([1]; 34 μM tubulin, 37° C., 45 minutes, vs tubulin alone, listed as 73DRFSVNLDVKHFS85): no effect; also recorded: little or no effect
- effect on rate of microtubule assembly [1, 5]: accelerated microtubule assembly; also recorded: increased
- effect on microtubule disassembly [2]: no effect
- effect on microtubule disassembly ([2]; listed as 73DRFSVNLDVKHFS85): little or no effect
- effect on thermal aggregation of tubulin ([3]; 52° C., 60 minutes): no effect

Molecule: ERTIPITRE [synthetic peptide of human αB crystallin C-terminal extension, residues 156-164]
- effect on total microtubule assembly / amount of microtubules formed in 45 minutes [1, 4]: increased
- effect on total microtubule assembly / amount of microtubules formed in 45 minutes ([1]; 34 μM tubulin, 37° C., 45 minutes, vs tubulin alone, listed as 155ERTIPITRE165): promote microtubule assembly
- effect on total microtubule assembly / amount of microtubules formed in 45 minutes ([1]; 34 μM tubulin, 37° C., 45 minutes, vs tubulin alone, listed as 156ERTIPITRE164): promote microtubule assembly
- effect on rate of microtubule assembly [1, 5]: increased
- effect on microtubule disassembly [2]: decreased
- inhibition of microtubule disassembly [2]: ~36%
- effect on microtubule disassembly ([2]; listed as 156ERTIPITRE164): inhibit microtubule disassembly
- effect on thermal aggregation of tubulin ([3]; 52° C., 60 minutes): decreased

Molecule: FISREFHR
- effect on total microtubule assembly / amount of microtubules formed in 45 minutes [1, 4]: decreased the amount of microtubules formed; also recorded: inhibited
- effect on total microtubule assembly / amount of microtubules formed in 45 minutes ([1]; 34 μM tubulin, 37° C., 45 minutes, vs tubulin alone, listed as 113FISREFHR120): inhibited microtubule assembly
- effect on rate of microtubule assembly [1, 5]: slowed microtubule assembly
- decrease of microtubule assembly ([1]; synthetic peptide (4.3 μl of 2 mM), 34 μM tubulin, 37° C., 45 minutes, vs tubulin alone): approximately 45%
- effect on microtubule disassembly [2]: decreased
- inhibition of microtubule disassembly [2]: ~24%
- effect on microtubule disassembly ([2]; listed as 113FISREFHR120): inhibited
- effect on thermal aggregation of tubulin ([3]; 52° C., 60 minutes): decreased
- effect on thermal aggregation of tubulin ([3]; 52° C., 60 minutes, listed as 113FISREFHR120): protected

Molecule: LTITSSLSSDGV
- effect on total microtubule assembly / amount of microtubules formed in 45 minutes [1, 4]: increased
- effect on total microtubule assembly / amount of microtubules formed in 45 minutes ([1]; 34 μM tubulin, 37° C., 45 minutes, vs tubulin alone, listed as 131LTITSSLSSDGV142): promote microtubule assembly
- effect on rate of microtubule assembly [1, 5]: increased
- effect on microtubule disassembly [2]: no effect
- effect on microtubule disassembly ([2]; listed as 131LTITSSLSSDGV142): inhibit microtubule disassembly
- effect on thermal aggregation of tubulin ([3]; 52° C., 60 minutes): decreased
- effect on thermal aggregation of tubulin ([3]; 52° C., 60 minutes, listed as 131LTITSSLSSDGV142): protected

Molecule: STSLSPFYLRPPSFLRAP
- delay of initiation of microtubule assembly relative to tubulin alone ([1]; 34 μM tubulin, 37° C.): approximately 5 minutes
- effect on total microtubule assembly / amount of microtubules formed in 45 minutes [1, 4]: no effect; also recorded: no change
- effect on total microtubule assembly / amount of microtubules formed in 45 minutes ([1]; 34 μM tubulin, 37° C., 45 minutes, vs tubulin alone, listed as 41STSLSPFYLRPPSFLRAP58): no effect; also recorded: little or no effect
- effect on rate of microtubule assembly [1, 5]: slowed the rate of microtubule assembly
- effect on microtubule disassembly [2]: no effect
- effect on microtubule disassembly ([2]; listed as 41STSLSPFYLRPPSFLRAP58): little or no effect
- effect on thermal aggregation of tubulin ([3]; 52° C., 60 minutes): small protective effect

Molecule: wt αB crystallin: wild-type full-length human αB crystallin, small heat shock protein and molecular chaperone, expressed and purified
- effect on microtubule assembly (words) ([1]; high αB crystallin concentrations, tubulin:αB crystallin ratios <1:4): inhibited
- effect on microtubule assembly (words) ([1]; molar ratios of tubulin to αB crystallin <1:2): inhibited microtubule assembly
- effect on microtubule assembly (words) ([1]; molar ratios of tubulin to αB crystallin between 4:1 and 1:2): favored the assembly of additional microtubules; also recorded: promoted
- microtubule assembly ([1]; ratio of tubulin to αB crystallin 1:10): no microtubules were formed; also recorded: undetectable
- amount of microtubules formed less than tubulin alone ([1]; ratio of tubulin to αB crystallin <1:2, 34 μM tubulin): 30-63%
- effect on microtubule assembly (words) ([1]; ratio of tubulin to αB crystallin >4:1): minimal
- effect on microtubule assembly (words) ([1]; ratio of tubulin to αB crystallin >4:1, listed as αB crystallin): little or no effect
- microtubule assembly, normalized (absence of αB crystallin = 1.0) ([1]; ratios <1.4, FIG. 5): < 1
- microtubule assembly, normalized (absence of αB crystallin = 1.0) ([1]; ratios between 4:1 and 1.2, FIG. 5): > 1.0
- microtubule assembly, normalized (absence of αB crystallin = 1.0) ([1]; tubulin to αB crystallin ratios >4:1, FIG. 5): 1.0
- effect on microtubule assembly, vs absence of αB crystallin [1]: increased
- increase of microtubule assembly ([1]; αB crystallin protein (4.3 μl of 80 μM), 34 μM tubulin, 37° C., 45 minutes): ~41%
- effect on microtubule disassembly (words), vs absence of αB crystallin [2]: unchanged
- effect on microtubule disassembly (words), vs absence of αB crystallin ([2]; listed as Wt αB crystallin): no effect
- decrease of thermal aggregation of tubulin (protection) ([3]; full-length αB crystallin protein, 52° C., 60 minutes): 65%
- effect on tubulin aggregation, vs absence of αB crystallin ([3]; 52° C., 60 minutes): decreased

B1: R120G: single point mutant of human αB crystallin, Arg-120 replaced with glycine (protein)
chain: MDIAIHHPWIRRPFFPFHSPSRLFDQFFGEHLLESDLFPTSTSLSPFYLRPPSFLRAPSWFDTGLSEMRLEKDRFSVNLDVKHFSPEELKVKVLGDVIEVHGKHEERQDEHGFISREFHGKYRIPADVDPLTITSSLSSDGVLTVNGPRKQVSGPERTIPITREEKPAVTAAPKK
- microtubule assembly relative to wt αB crystallin ([1]; mutant αB crystallin, FIG. 4): lower
- effect on microtubule assembly, vs absence of αB crystallin [1]: unchanged
- microtubule disassembly relative to wt αB crystallin ([2]; mutant αB crystallin, FIG. 4): similar
- effect on microtubule disassembly (words), vs absence of αB crystallin [2]: unchanged
- tubulin aggregation relative to wt αB crystallin ([3]; mutant αB crystallin, FIG. 4): similar
- effect on tubulin aggregation, vs absence of αB crystallin ([3]; 52° C., 60 minutes): decreased
